From the Immune Epitope Database (IEDB)
pIC50: −log10 of the molar value.

Assays:
Experiment in all cases: IEDB peptide-MHC binding, cellular MHC/competitive/fluorescence; ≥ and ≤ were set here for values at or beyond the usual limits of such assays
[1] = target: HLA-A*02:01
[2] = target: HLA-A*02:02
[3] = target: HLA-A*02:03
[4] = target: HLA-A*02:06
[5] = target: HLA-A*68:02
[6] = source organism: Vaccinia virus WR
[7] = source organism: Influenza A virus
[8] = source organism: Mammarenavirus machupoense
[9] = source organism: Hepacivirus hominis

Sequence | pIC50 [1, 6] | pIC50 [2, 6] | pIC50 [3, 6] | pIC50 [4, 6] | pIC50 [5, 6] | also measured
VIVENDNVI | 4.59 | 4.81 | 4.71 | 5.14 | 5.10 | 
CVRLNNPVIL | 4.87 | 5.07 | 5.27 | 4.35 | ≤ 4.15 | 
ILLRAFTEEGA |  |  |  |  |  | pIC50 [1, 7]: 4.92; pIC50 [2, 7]: 5.02; pIC50 [3, 7]: 4.58; pIC50 [4, 7]: 4.58; pIC50 [5, 7]: ≤ 4.15
RTWKVLSIMA | 5.07 | 4.62 | 5.22 | 5.24 | 5.09 | 
SAAFEDLRLL |  |  |  |  |  | pIC50 [1, 7]: 4.37; pIC50 [2, 7]: 4.67; pIC50 [3, 7]: 4.87; pIC50 [4, 7]: 4.63; pIC50 [5, 7]: ≤ 4.15
DVGCLLTDTI | 5.17 | 4.97 | 4.81 | 5.00 | 4.56 | 
RAEIIRMMEGA |  |  |  |  |  | pIC50 [1, 7]: ≤ 4.15; pIC50 [2, 7]: 4.93; pIC50 [3, 7]: 5.00; pIC50 [4, 7]: ≤ 4.15; pIC50 [5, 7]: 4.26
PANINDKQIM | 4.49 | 4.31 | 4.37 | 4.96 | ≤ 4.15 | 
TVPSERGL |  |  |  |  |  | pIC50 [1, 7]: 4.28; pIC50 [2, 7]: ≤ 4.15; pIC50 [3, 7]: ≤ 4.15; pIC50 [4, 7]: ≤ 4.15; pIC50 [5, 7]: 4.19
YNFSLSAAV |  |  |  |  |  | pIC50 [1, 8]: 5.12; pIC50 [2, 8]: 4.33; pIC50 [3, 8]: ≤ 4.15; pIC50 [4, 8]: ≤ 4.15; pIC50 [5, 8]: 4.53
YVKNGTKGKL | 4.39 | 5.24 | 5.14 | 4.55 | 4.49 | 
NTTIEKEI |  |  |  |  |  | pIC50 [1, 7]: 4.30; pIC50 [2, 7]: ≤ 4.15; pIC50 [3, 7]: ≤ 4.15; pIC50 [4, 7]: ≤ 4.15; pIC50 [5, 7]: ≤ 4.15
IIRVTTELNI | 5.15 | 5.00 | 5.06 | 4.86 | 4.79 | 
PLIRHENRMVL |  |  |  |  |  | pIC50 [1, 7]: 4.54; pIC50 [2, 7]: ≤ 4.15; pIC50 [3, 7]: 4.77; pIC50 [4, 7]: ≤ 4.15; pIC50 [5, 7]: ≤ 4.15
ATRRMIQL |  |  |  |  |  | pIC50 [1, 7]: ≤ 4.15; pIC50 [2, 7]: ≤ 4.15; pIC50 [3, 7]: ≤ 4.15; pIC50 [4, 7]: ≤ 4.15; pIC50 [5, 7]: ≤ 4.15
VVKDKIKLPT | 4.40 | 4.43 | 5.07 | 4.54 | 4.37 | 
PVDLVKSSFV | 4.41 | 5.18 | 5.02 | 4.57 | 4.97 | 
PVETLFGSYI | ≤ 4.15 | 4.86 | 4.93 | ≤ 4.15 | 5.15 | 
YNCKCCWFA |  |  |  |  |  | pIC50 [1, 8]: 4.37; pIC50 [2, 8]: 4.79; pIC50 [3, 8]: 4.50; pIC50 [4, 8]: ≤ 4.15; pIC50 [5, 8]: 4.28
LIISTDQDT | 4.52 | ≤ 4.15 | ≤ 4.15 | ≤ 4.15 | ≤ 4.15 | 
PACVYGLA |  |  |  |  |  | pIC50 [1, 7]: 4.16; pIC50 [2, 7]: ≤ 4.15; pIC50 [3, 7]: ≤ 4.15; pIC50 [4, 7]: ≤ 4.15; pIC50 [5, 7]: 4.28
PTLFGRGVI | ≤ 4.15 | 4.52 | 5.17 | 4.19 | ≤ 4.15 | 
DISVNASKTI | 4.83 | 4.33 | 4.93 | ≤ 4.15 | 4.84 | 
TQLFKYVPSA | ≤ 4.15 | ≤ 4.15 | ≤ 4.15 | ≤ 4.15 | ≤ 4.15 | 

Sequence | pIC50 [1, 6] | pIC50 [2, 6] | pIC50 [3, 6] | pIC50 [4, 6] | pIC50 [5, 6] | also measured
SIENKHQRRL | ≤ 4.15 | 4.77 | 4.68 | 4.27 | ≤ 4.15 | 
RLEVIGLTT | 4.54 | 4.70 | 4.86 | ≤ 4.30 | 4.88 | 
TIEDDKIVTM | 4.88 | 4.77 | 4.76 | 4.58 | 4.41 | 
GLQSSDDFA |  |  |  |  |  | pIC50 [1, 7]: 5.10; pIC50 [2, 7]: 4.94; pIC50 [3, 7]: 4.73; pIC50 [4, 7]: ≤ 4.15; pIC50 [5, 7]: ≤ 4.15
CLEAKTHFST | 4.30 | 4.91 | 4.96 | ≤ 4.15 | ≤ 4.15 | 
ELTSNCTRT | 4.31 | ≤ 4.15 | ≤ 4.15 | 4.33 | ≤ 4.15 | 
VTGSYNLVDT | ≤ 4.15 | ≤ 4.15 | ≤ 4.15 | ≤ 4.15 | ≤ 4.15 | 
YIKDLKHAT | 5.09 | 4.73 | ≤ 4.15 | 4.40 | ≤ 4.15 | 
SITPNNLNKI | ≤ 4.15 | 4.83 | ≤ 4.15 | ≤ 4.15 | ≤ 4.15 | 
DVNEEYTEAA | 4.37 | 4.33 | 4.54 | 4.22 | 4.80 | 
PTEMVDVSM | 4.32 | 4.98 | 4.38 | 4.40 | 4.28 | 
VLKAMHDKKI | ≤ 4.15 | 4.31 | 4.47 | ≤ 4.15 | ≤ 4.15 | 
ATAILRKA |  |  |  |  |  | pIC50 [1, 7]: 4.28; pIC50 [2, 7]: 4.21; pIC50 [3, 7]: 4.37; pIC50 [4, 7]: ≤ 4.15; pIC50 [5, 7]: ≤ 4.15
LAIKNYYRKT | ≤ 4.15 | 4.43 | 5.14 | ≤ 4.15 | 4.40 | 
IILFQNNDI | 4.87 | 4.95 | 4.28 | 4.92 | 4.62 | 
SAAFEDLRL |  |  |  |  |  | pIC50 [1, 7]: ≤ 4.15; pIC50 [2, 7]: 4.81; pIC50 [3, 7]: 5.03; pIC50 [4, 7]: 4.51; pIC50 [5, 7]: 4.57
CVRNLEELTT | 4.34 | 4.90 | 4.82 | 4.37 | 4.48 | 
PLTGNNTITT | ≤ 4.15 | 5.12 | 4.53 | ≤ 4.15 | 4.31 | 
SADNHPKMI | 4.84 | 5.09 | 4.36 | ≤ 4.15 | ≤ 4.15 | 
DAKRNSKSL | ≤ 4.15 | 4.86 | 4.30 | ≤ 4.15 | ≤ 4.15 | 
ITETIPIGM | ≤ 4.15 | 4.91 | 4.37 | 5.11 | 5.21 | 
NLCKYLRGHT | 4.42 | 4.40 | 5.09 | ≤ 4.15 | 4.91 | 
DVEKRILNT | 5.03 | 5.23 | 5.17 | ≤ 4.15 | ≤ 4.15 | 
LAEYIRHRNT | ≤ 4.15 | 4.44 | 4.85 | ≤ 4.15 | 4.28 | 

Sequence | pIC50 [1, 6] | pIC50 [2, 6] | pIC50 [3, 6] | pIC50 [4, 6] | pIC50 [5, 6] | also measured
MQLKIDKLT | 4.58 | 5.12 | 4.22 | 4.22 | ≤ 4.15 | 
NMDKVSAQNI | 4.80 | 5.10 | 4.77 | ≤ 4.15 | 4.43 | 
IASAPQQLCT | 4.44 | 4.27 | ≤ 4.15 | 5.08 | 4.79 | 
TIESAKTKI | 4.82 | 4.79 | 4.27 | 4.29 | 4.28 | 
VASDVCKKNL | ≤ 4.15 | 4.29 | ≤ 4.15 | ≤ 4.15 | 4.40 | 
TVDVRNIVT | 4.98 | 4.87 | 4.88 | 4.27 | 5.22 | 
PLHIVCSKTV | 4.67 | 4.46 | 5.28 | 4.57 | 5.03 | 
AARLKRSAT | ≤ 4.15 | 4.90 | 4.98 | 4.20 | ≤ 4.15 | 
PTDMLKLFT | ≤ 4.15 | 4.54 | 4.33 | 4.16 | ≤ 4.15 | 
PLIISTDQDT | 4.28 | 4.35 | 4.45 | 4.32 | ≤ 4.15 | 
LLGLLLLCV |  |  |  |  |  | pIC50 [1, 9]: 5.13; pIC50 [2, 9]: 5.01; pIC50 [3, 9]: 5.17; pIC50 [4, 9]: 4.72; pIC50 [5, 9]: ≤ 4.15
DIVSDSKKIM | 4.19 | 4.60 | 4.24 | ≤ 4.15 | ≤ 4.15 | 
LAYYNSCML | 4.34 | 4.89 | 4.81 | 4.67 | 4.87 | 
GIDTSNNIA | 4.76 | 4.30 | ≤ 4.15 | 4.60 | ≤ 4.15 | 
TTENAAYQVL | 5.09 | 4.53 | ≤ 4.15 | ≤ 4.15 | 4.74 | 
YVPSAEDNYL | ≤ 4.15 | ≤ 4.15 | ≤ 4.15 | ≤ 4.15 | ≤ 4.15 | 
STQQNKLVI | 4.39 | 4.28 | 4.84 | ≤ 4.15 | 4.59 | 
NLPFDKTTIMA |  |  |  |  |  | pIC50 [1, 7]: 4.60; pIC50 [2, 7]: 5.11; pIC50 [3, 7]: 5.07; pIC50 [4, 7]: ≤ 4.15; pIC50 [5, 7]: 4.96
PAMSTYSDI | 4.79 | 4.74 | 4.69 | ≤ 4.15 | 4.16 | 
AIKQYGDIDL | 4.34 | 4.63 | 4.33 | ≤ 4.15 | 4.41 | 
GANGSTAEQL | 4.17 | 5.14 | 4.34 | 4.26 | 4.87 | 
LVSKHWELT | ≤ 4.15 | 4.91 | 4.83 | ≤ 4.15 | ≤ 4.15 | 
